± gives the uncertainty stated by the source.

The labels stand for the following.
B1: Histone-lysine N-methyltransferase SETD2, residues 2382 to 2430; numbered along this chain, Q9BYW2 (parent)
chain: SPPKPKTIVLPPNWKTARDPEGKIYYYHVITRQTQWDPPTWESPGDDAS

In this data set the parent is B1. Put plainly: abundance fitness (aPCA) (normalised: wild type 0, dead -1); higher = more abundant; growth selection in yeast, the domain comes from the species named. As to conditions: Homo sapiens.
In the case of SPPKPKTIVLPTNWKTARDPEGKIYYYHVITRQTQWDPPTWESPGDDAS [P12T], the abundance fitness came out at 0.092 ± 0.062. The value for SPPKPKTIVLPANWKTARDPEGKIYYYHVITRQTQWDPPTWESPGDDAS [P12A] was 0.153 ± 0.048; that for SPPKPKTIVLPQNWKTARDPEGKIYYYHVITRQTQWDPPTWESPGDDAS [P12Q] was -0.238 ± 0.09. The value for SPPKPKTIVLPWNWKTARDPEGKIYYYHVITRQTQWDPPTWESPGDDAS [P12W] was -0.309 ± 0.062. The value for SPPKPKTIVLPHNWKTARDPEGKIYYYHVITRQTQWDPPTWESPGDDAS [P12H] was -0.528 ± 0.21. For SPPKPKTIVLPMNWKTARDPEGKIYYYHVITRQTQWDPPTWESPGDDAS [P12M], the abundance fitness was -0.007 ± 0.036. Turning to SPPKPKTIVLPINWKTARDPEGKIYYYHVITRQTQWDPPTWESPGDDAS [P12I], the abundance fitness was -0.451 ± 0.16. As for SPPKPKTIVLPKNWKTARDPEGKIYYYHVITRQTQWDPPTWESPGDDAS [P12K], the abundance fitness stood at 0.048 ± 0.073. For SPPKPKTIVLPRNWKTARDPEGKIYYYHVITRQTQWDPPTWESPGDDAS [P12R], the abundance fitness came to 0.009 ± 0.045.

In the case of SPPKPKTIVLPENWKTARDPEGKIYYYHVITRQTQWDPPTWESPGDDAS [P12E], the abundance fitness came to 0.105 ± 0.084. The value for SPPKPKTIVLPCNWKTARDPEGKIYYYHVITRQTQWDPPTWESPGDDAS [P12C] was -0.844 ± 0.23; that for SPPKPKTIVLPDNWKTARDPEGKIYYYHVITRQTQWDPPTWESPGDDAS [P12D] was -0.013 ± 0.076.

Consider SPPKPKTIVLPGNWKTARDPEGKIYYYHVITRQTQWDPPTWESPGDDAS [P12G], for which the abundance fitness is -0.398 ± 0.039. The value for SPPKPKTIVLPFNWKTARDPEGKIYYYHVITRQTQWDPPTWESPGDDAS [P12F] was -0.402 ± 0.13; that for SPPKPKTIVLPSNWKTARDPEGKIYYYHVITRQTQWDPPTWESPGDDAS [P12S] was -0.195 ± 0.08. The value for SPPKPKTIVLEPNWKTARDPEGKIYYYHVITRQTQWDPPTWESPGDDAS [P11E] was -0.5 ± 0.069; that for SPPKPKTIVLYPNWKTARDPEGKIYYYHVITRQTQWDPPTWESPGDDAS [P11Y] was -0.666 ± 0.18; that for SPPKPKTIVLQPNWKTARDPEGKIYYYHVITRQTQWDPPTWESPGDDAS [P11Q] was -0.186 ± 0.084. Turning to SPPKPKTIVLNPNWKTARDPEGKIYYYHVITRQTQWDPPTWESPGDDAS [P11N], the abundance fitness is -0.371 ± 0.076. Under SPPKPKTIVLAPNWKTARDPEGKIYYYHVITRQTQWDPPTWESPGDDAS [P11A] stands -0.388 ± 0.069. For SPPKPKTIVLMPNWKTARDPEGKIYYYHVITRQTQWDPPTWESPGDDAS [P11M], the abundance fitness is -0.374 ± 0.049. The value for SPPKPKTIVLWPNWKTARDPEGKIYYYHVITRQTQWDPPTWESPGDDAS [P11W] was -0.811 ± 0.12; that for SPPKPKTIVLKPNWKTARDPEGKIYYYHVITRQTQWDPPTWESPGDDAS [P11K] was -0.281 ± 0.055; that for SPPKPKTIVLCPNWKTARDPEGKIYYYHVITRQTQWDPPTWESPGDDAS [P11C] was -0.694 ± 0.11. The value for SPPKPKTIVLFPNWKTARDPEGKIYYYHVITRQTQWDPPTWESPGDDAS [P11F] was -0.43 ± 0.064; that for SPPKPKTIVLTPNWKTARDPEGKIYYYHVITRQTQWDPPTWESPGDDAS [P11T] was -0.682 ± 0.13.

Take SPPKPKTIVLSPNWKTARDPEGKIYYYHVITRQTQWDPPTWESPGDDAS [P11S]: the abundance fitness is -0.453 ± 0.11.

SPPKPKTIVLLPNWKTARDPEGKIYYYHVITRQTQWDPPTWESPGDDAS [P11L]: the abundance fitness is -0.279 ± 0.054. Turning to SPPKPKTIVLDPNWKTARDPEGKIYYYHVITRQTQWDPPTWESPGDDAS [P11D], the abundance fitness is -0.156 ± 0.06.

For SPPKPKTIVLVPNWKTARDPEGKIYYYHVITRQTQWDPPTWESPGDDAS [P11V], the abundance fitness is -0.689 ± 0.11.

Regarding SPPKPKTIVLIPNWKTARDPEGKIYYYHVITRQTQWDPPTWESPGDDAS [P11I], the abundance fitness was -0.84 ± 0.39.

On to SPPKPKTIVLPPNWKTAHDPEGKIYYYHVITRQTQWDPPTWESPGDDAS [R18H], for which the abundance fitness was -0.286 ± 0.26. Take SPPKPKTIVLPPNWKTAFDPEGKIYYYHVITRQTQWDPPTWESPGDDAS [R18F]: the abundance fitness was -0.424 ± 0.094. The value for SPPKPKTIVLPPNWKTAGDPEGKIYYYHVITRQTQWDPPTWESPGDDAS [R18G] was -0.79 ± 0.095. Turning to SPPKPKTIVLPPNWKTAEDPEGKIYYYHVITRQTQWDPPTWESPGDDAS [R18E], the abundance fitness was -0.248 ± 0.1. The value for SPPKPKTIVLPPNWKTAADPEGKIYYYHVITRQTQWDPPTWESPGDDAS [R18A] was -0.467 ± 0.07. The value for SPPKPKTIVLPPNWKTADDPEGKIYYYHVITRQTQWDPPTWESPGDDAS [R18D] was -0.817 ± 0.31; that for SPPKPKTIVYPPNWKTARDPEGKIYYYHVITRQTQWDPPTWESPGDDAS [L10Y] was -0.249 ± 0.12; that for SPPKPKTIVLPPNWKLARDPEGKIYYYHVITRQTQWDPPTWESPGDDAS [T16L] was 0.049 ± 0.048.

In the case of SPPKPKTIVLPPNWKAARDPEGKIYYYHVITRQTQWDPPTWESPGDDAS [T16A], the abundance fitness was determined as 0.027 ± 0.041. The value for SPPKPKTIVLPPNWKCARDPEGKIYYYHVITRQTQWDPPTWESPGDDAS [T16C] was -0.213 ± 0.12. As for SPPKPKTIVLPPNWKIARDPEGKIYYYHVITRQTQWDPPTWESPGDDAS [T16I], the abundance fitness was -0.15 ± 0.075.

As for SPPKPKTIVLPPNWKMARDPEGKIYYYHVITRQTQWDPPTWESPGDDAS [T16M], the abundance fitness was determined as 0.218 ± 0.039. Under SPPKPKTIVLPPNWKHARDPEGKIYYYHVITRQTQWDPPTWESPGDDAS [T16H] stands 0.095 ± 0.11. On to SPPKPKTIVLPPNWKNARDPEGKIYYYHVITRQTQWDPPTWESPGDDAS [T16N], for which the abundance fitness was -0.723 ± 0.15. The value for SPPKPKTIVLPPNWKWARDPEGKIYYYHVITRQTQWDPPTWESPGDDAS [T16W] was -0.026 ± 0.052. The value for SPPKPKTIVLPPNWKYARDPEGKIYYYHVITRQTQWDPPTWESPGDDAS [T16Y] was -0.164 ± 0.1; that for SPPKPKTIVLPPNWKDARDPEGKIYYYHVITRQTQWDPPTWESPGDDAS [T16D] was -0.47 ± 0.091. The value for SPPKPKTIVLPPNWKPARDPEGKIYYYHVITRQTQWDPPTWESPGDDAS [T16P] was -0.341 ± 0.12; that for SPPKPKTIVLPPNWKSARDPEGKIYYYHVITRQTQWDPPTWESPGDDAS [T16S] was 0.168 ± 0.035.

In the case of SPPKPKTIVLPPNWKGARDPEGKIYYYHVITRQTQWDPPTWESPGDDAS [T16G], the abundance fitness is -0.203 ± 0.057. Regarding SPPKPKTIVLPPNWKKARDPEGKIYYYHVITRQTQWDPPTWESPGDDAS [T16K], the abundance fitness is -0.059 ± 0.092.

In the case of SPPKPKTIVLPPNWKQARDPEGKIYYYHVITRQTQWDPPTWESPGDDAS [T16Q], the abundance fitness stood at 0.136 ± 0.064.

(Values after the Human Domainome abundance scans (Beltran et al. 2025).)
